In patent US20240270821A1, “GIP/GLP1/GCG TRI-RECEPTOR AGONISTS AND USES THEREOF” (priority 2023, published 2024):

T1: human GIP receptor (human) (UniProt P48546)
T1 sequence (looked up): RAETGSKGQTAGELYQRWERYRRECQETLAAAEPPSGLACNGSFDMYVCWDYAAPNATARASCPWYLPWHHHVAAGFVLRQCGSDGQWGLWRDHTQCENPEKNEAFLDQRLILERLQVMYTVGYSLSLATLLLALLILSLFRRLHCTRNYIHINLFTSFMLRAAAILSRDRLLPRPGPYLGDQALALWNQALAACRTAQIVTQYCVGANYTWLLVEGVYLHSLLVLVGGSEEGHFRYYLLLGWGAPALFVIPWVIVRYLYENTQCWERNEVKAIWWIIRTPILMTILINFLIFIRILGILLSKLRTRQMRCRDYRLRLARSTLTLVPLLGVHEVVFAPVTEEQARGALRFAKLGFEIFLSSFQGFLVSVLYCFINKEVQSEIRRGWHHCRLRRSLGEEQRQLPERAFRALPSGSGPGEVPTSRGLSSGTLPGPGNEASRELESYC

B1: Example 39 (peptide)
chain: YXQGTFTSDFSKXLDKKAQXAFIQWLLEGGPSSGAPPPSEG
modifications: Lys acylated; non-natural residues; C-amide; synthetic construct; SITE 2: note = 2-Aminoisobutyric Acid; SITE 13: note = alpha-methyl-leucine; SITE 17: note = Lysine is chemically modified through conjugation of the epsilon-amino group of the Lysine side chain with (2-[2-(2-Amino-ethoxy)-ethoxy]-acetyl)-(gamma-Glu)-CO-(CH2) 18-CO2H; SITE 20: n
B2: Example 40 (peptide)
chain: YXQGTFTSDFSKXLDKKAQXAFIEWLIEGGPSSGAPPPSEG
modifications: Aib, αMeL; lysine acylated; C-terminal amide; synthetic construct; SITE 2: note = 2-Aminoisobutyric Acid; SITE 13: note = alpha-methyl-leucine; SITE 17: note = Lysine is chemically modified through conjugation of the epsilon-amino group of the Lysine side chain with (2-[2-(2-Amino-ethoxy)-ethoxy]-acetyl)-(gamma-Glu)-CO-(CH2) 18-CO2H; SITE 20: n
B3: Example 424 (peptide)
chain: YXQGTXTSDYSIXLDKKAQXAFIEYLEEGGPSSGAPPPSE
modifications: synthetic construct; SITE 2: note = 2-Aminoisobutyric Acid; SITE 6: note = alpha-methyl-2-fluoro-L-phenylalanine; SITE 13: note = alpha-methyl-leucine; SITE 17: note = Lysine is chemically modified through conjugation of the epsilon-amino group of the Lysine side chain with (2-[2-(2-Amino-ethoxy)-et)
B4: Example 433 (peptide)
chain: YXQGTXTSDYSILLDKKAQXAFIEYLEEGGPSSGAPPPSE
modifications: synthetic construct; SITE 2: note = 2-Aminoisobutyric Acid; SITE 6: note = alpha-methyl-2-fluoro-L-phenylalanine; SITE 17: note = Lysine is chemically modified through conjugation of the epsilon-amino group of the Lysine side chain with (gamma-Glu)2-CO-(CH2)16-CO2H; SITE 20: note = 2-Aminoisobutyric
B5: Example 429 (peptide)
chain: YXQGTXTSDXXIXLDXKAQXXFIEXLIEGGPSSGAPEPSEG
modifications: synthetic construct; SITE 2: note = 2-Aminoisobutyric Acid; SITE 6: note = alpha-methyl-2-fluoro-L-phenylalanine; SITE 10: note = 3-(4-Pyridyl)-L-alanine; SITE 11: note = alpha-methyl-L-serine; SITE 13: note = alpha-methyl-leucine; SITE 16: note = L-ornithine; SITE 17: note = Lysine is chemically mo
B6: Example 420 (peptide)
chain: YXQGTXTSDYXIXLDXKAQXAFIEYLLEGGPSSGEPPPE
modifications: synthetic construct; SITE 2: note = 2-Aminoisobutyric Acid; SITE 6: note = alpha-methyl-L-phenylalanine; SITE 11: note = alpha-methyl-L-serine; SITE 13: note = alpha-methyl-leucine; SITE 16: note = L-ornithine; SITE 17: note = Lysine is chemically modified through conjugation of the epsilon-amino gr
B7: Example 438 (peptide)
chain: YXQGTXTSDXXIXLDXKAQXXFIEXLSEGGPSSGEPPPE
modifications: synthetic construct; SITE 2: note = 2-Aminoisobutyric Acid; SITE 6: note = alpha-methyl-2-fluoro-L-phenylalanine; SITE 10: note = 3-(4-Pyridyl)-L-alanine; SITE 11: note = alpha-methyl-L-serine; SITE 13: note = alpha-methyl-leucine; SITE 16: note = L-ornithine; SITE 17: note = Lysine is chemically mo
B8: Example 437 (peptide)
chain: YXQGTXTSDXXIXLDXKAQXXFIEXLAEGGPSSGEPPPE
modifications: synthetic construct; SITE 2: note = 2-Aminoisobutyric Acid; SITE 6: note = alpha-methyl-2-fluoro-L-phenylalanine; SITE 10: note = 3-(4-Pyridyl)-L-alanine; SITE 11: note = alpha-methyl-L-serine; SITE 13: note = alpha-methyl-leucine; SITE 16: note = L-ornithine; SITE 17: note = Lysine is chemically mo
B9: Example 439 (peptide)
chain: YXQGTXTSDXXIXLDXKAQXXFIEXLQEGGPSSGEPPPE
modifications: synthetic construct; SITE 2: note = 2-Aminoisobutyric Acid; SITE 6: note = alpha-methyl-2-fluoro-L-phenylalanine; SITE 10: note = 3-(4-Pyridyl)-L-alanine; SITE 11: note = alpha-methyl-L-serine; SITE 13: note = alpha-methyl-leucine; SITE 16: note = L-ornithine; SITE 17: note = Lysine is chemically mo
B10: Example 436 (peptide)
chain: YXQGTXTSDXXIXLDXKAQXSFIEXLIEGGPSSGEPPPE
modifications: synthetic construct; SITE 2: note = 2-Aminoisobutyric Acid; SITE 6: note = alpha-methyl-2-fluoro-L-phenylalanine; SITE 10: note = 3-(4-Pyridyl)-L-alanine; SITE 11: note = alpha-methyl-L-serine; SITE 13: note = alpha-methyl-leucine; SITE 16: note = L-ornithine; SITE 17: note = Lysine is chemically mo
B11: Example 431 (peptide)
chain: YXQGTXTSDYSIXLDKKAQXAFIEYLEEGGPSSGAPPPSEG
modifications: synthetic construct; SITE 2: note = 2-Aminoisobutyric Acid; SITE 6: note = alpha-methyl-2-fluoro-L-phenylalanine; SITE 13: note = alpha-methyl-leucine; SITE 17: note = Lysine is chemically modified through conjugation of the epsilon-amino group of the Lysine side chain with (2-[2-(2-Amino-ethoxy)-et)
B12: Example 435 (peptide)
chain: YXQGTXTSDYSILLDKKAQXAFIEYLEEGGPSSGAPPPSGE
modifications: synthetic construct; SITE 2: note = 2-Aminoisobutyric Acid; SITE 6: note = alpha-methyl-2-fluoro-L-phenylalanine; SITE 17: note = Lysine is chemically modified through conjugation of the epsilon-amino group of the Lysine side chain with (gamma-Glu)2-CO-(CH2)16-CO2H; SITE 20: note = 2-Aminoisobutyric
B13: Example 434 (peptide)
chain: YXQGTXTSDYSILLDKKAQXAFIEYLEEGGPSSGAPPPSEG
modifications: synthetic construct; SITE 2: note = 2-Aminoisobutyric Acid; SITE 6: note = alpha-methyl-2-fluoro-L-phenylalanine; SITE 17: note = Lysine is chemically modified through conjugation of the epsilon-amino group of the Lysine side chain with (gamma-Glu)2-CO-(CH2)16-CO2H; SITE 20: note = 2-Aminoisobutyric
B14: Example 419 (peptide)
chain: YXQGTXTSDYSILLDKKAQXAFIEYLLEGGPSSGAPPPS
modifications: synthetic construct; SITE 2: note = 2-Aminoisobutyric Acid; SITE 6: note = alpha-methyl-L-phenylalanine; SITE 17: note = Lysine is chemically modified through conjugation of the epsilon-amino group of the Lysine side chain with (2-[2-(2-Amino-ethoxy)-ethoxy]-acetyl)2-(gamma-Glu)-CO-(CH2 )16-CO2H; SI
B15: Example 426 (peptide)
chain: HXQGTXTSDYSILLDKKAQXAFIEYLEEGGPSSGAPPPS
modifications: synthetic construct; SITE 2: note = 2-Aminoisobutyric Acid; SITE 6: note = alpha-methyl-2-fluoro-L-phenylalanine; SITE 17: note = Lysine is chemically modified through conjugation of the epsilon-amino group of the Lysine side chain with (gamma-Glu)2-CO-(CH2)16-CO2H; SITE 20: note = 2-Aminoisobutyric
B16: Example 428 (peptide)
chain: YXQGTXTSDYSILLDXKAQXAFIEYLLEGGPSSGAPPPS
modifications: synthetic construct; SITE 2: note = 2-Aminoisobutyric Acid; SITE 6: note = alpha-methyl-2-fluoro-L-phenylalanine; SITE 16: note = L-ornithine; SITE 17: note = Lysine is chemically modified through conjugation of the epsilon-amino group of the Lysine side chain with (gamma-Glu)2-CO-(CH2)16-CO2H; SITE
B17: Example 441 (peptide)
chain: YXQGTXTSDXSIXLDXKAQXAFIEYLEEGGPSSGAPPPS
modifications: synthetic construct; SITE 2: note = 2-Aminoisobutyric Acid; SITE 6: note = alpha-methyl-2-fluoro-L-phenylalanine; SITE 10: note = 3-(4-Pyridyl)-L-alanine; SITE 13: note = alpha-methyl-leucine; SITE 16: note = L-ornithine; SITE 17: note = Lysine is chemically modified through conjugation of the epsil
B18: Example 427 (peptide)
chain: YXQGTXTSDYSILLDXKAQXAFIEYLLEGGPSSGAPPPS
modifications: synthetic construct; SITE 2: note = 2-Aminoisobutyric Acid; SITE 6: note = alpha-methyl-2-fluoro-L-phenylalanine; SITE 16: note = L-ornithine; SITE 17: note = Lysine is chemically modified through conjugation of the epsilon-amino group of the Lysine side chain with (2-[2-(2-Amino-ethoxy)-ethoxy]-ace)
B19: Example 421 (peptide)
chain: YXQGTXTSDYSIXLDKKAQXAFIEYLEEGGPSSGAPPPS
modifications: synthetic construct; SITE 2: note = 2-Aminoisobutyric Acid; SITE 6: note = alpha-methyl-2-fluoro-L-phenylalanine; SITE 13: note = alpha-methyl-leucine; SITE 17: note = Lysine is chemically modified through conjugation of the epsilon-amino group of the Lysine side chain with (2-[2-(2-Amino-ethoxy)-et)
B20: Example 430 (peptide)
chain: YXQGTXTSDYSILLDKIAQXAFIKYLEEGGPSSGAPPPS
modifications: not fully specified; synthetic construct; SITE 2: note = 2-Aminoisobutyric Acid; SITE 6: note = alpha-methyl-2-fluoro-L-phenylalanine; SITE 20: note = 2-Aminoisobutyric Acid; SITE 24: note = Lysine is chemically modified through conjugation of the epsilon-amino group of the Lysine side chain with (2-[2-(2-Amino-ethoxy)-
B21: Example 423 (peptide)
chain: YXQGTXTSDYSIXLDKKAQXAFIEYLEEGGPSSGAPEPS
modifications: synthetic construct; SITE 2: note = 2-Aminoisobutyric Acid; SITE 6: note = alpha-methyl-2-fluoro-L-phenylalanine; SITE 13: note = alpha-methyl-leucine; SITE 17: note = Lysine is chemically modified through conjugation of the epsilon-amino group of the Lysine side chain with (2-[2-(2-Amino-ethoxy)-et)
B22: Example 425 (peptide)
chain: HXQGTXTSDYSILLDKKAQXAFIEYLEEGGPSSGAPPPS
modifications: not fully specified; synthetic construct; SITE 2: note = 2-Aminoisobutyric Acid; SITE 6: note = alpha-methyl-2-fluoro-L-phenylalanine; SITE 17: note = Lysine is chemically modified through conjugation of the epsilon-amino group of the Lysine side chain with (2-[2-(2-Amino-ethoxy)-ethoxy]-acetyl)-(gamma-Glu)-CO-(CH2) 16-

Assays:
Assay in all cases: cell-based or functional assay
[1] = target: human glucagon receptor (human) (UniProt P47871)
Sequence of human glucagon receptor (human) (P47871 26-477): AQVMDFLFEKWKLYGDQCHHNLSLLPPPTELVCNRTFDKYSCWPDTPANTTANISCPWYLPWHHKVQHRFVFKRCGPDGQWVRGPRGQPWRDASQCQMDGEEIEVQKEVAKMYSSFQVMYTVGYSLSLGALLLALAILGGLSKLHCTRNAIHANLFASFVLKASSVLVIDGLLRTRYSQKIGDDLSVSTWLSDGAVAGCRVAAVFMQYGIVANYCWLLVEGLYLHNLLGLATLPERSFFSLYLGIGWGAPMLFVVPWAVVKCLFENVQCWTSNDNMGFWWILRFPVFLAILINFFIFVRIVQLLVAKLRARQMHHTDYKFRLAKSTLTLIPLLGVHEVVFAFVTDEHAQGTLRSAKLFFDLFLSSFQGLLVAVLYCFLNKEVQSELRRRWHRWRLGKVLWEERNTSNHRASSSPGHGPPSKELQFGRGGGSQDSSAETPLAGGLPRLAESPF

hGLP-1R = hGLP-1R (Homo sapiens, UniProt P43220)
Sequence of hGLP-1R (P43220 24-463): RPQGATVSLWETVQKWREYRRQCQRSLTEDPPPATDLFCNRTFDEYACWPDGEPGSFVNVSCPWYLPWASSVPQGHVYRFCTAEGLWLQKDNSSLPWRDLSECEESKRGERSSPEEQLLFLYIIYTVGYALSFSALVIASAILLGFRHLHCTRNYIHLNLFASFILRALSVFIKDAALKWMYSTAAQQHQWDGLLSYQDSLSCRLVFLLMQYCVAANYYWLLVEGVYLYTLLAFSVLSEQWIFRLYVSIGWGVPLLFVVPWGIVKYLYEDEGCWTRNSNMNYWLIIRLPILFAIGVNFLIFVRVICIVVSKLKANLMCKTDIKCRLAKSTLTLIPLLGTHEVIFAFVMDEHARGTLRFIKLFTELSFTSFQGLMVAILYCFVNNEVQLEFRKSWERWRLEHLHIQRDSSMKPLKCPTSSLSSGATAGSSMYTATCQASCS

[2] = target: T1, human GIP receptor (human)

Binder | Relative cAMP EC50 [1] [nM] | cAMP Rel EC50 (in the presence of 1% HSA) [1] [nM] | Relative cAMP EC50 (hGLP-1R) [nM] | cAMP Rel EC50 (in the presence of 1% HSA) (hGLP-1R) [nM] | Relative cAMP EC50 [2] [nM] | cAMP Rel EC50 (in the presence of 1% HSA) [2] [nM] | cAMP Rel EC50, nM (1% HSA) [1] [nM] | cAMP Rel EC50, nM (1% HSA) (hGLP-1R) [nM] | cAMP Rel EC50, nM (1% HSA) [2] [nM]
B1 | 10.1 | 1090 | 2.13 | 260 | 0.299 | 30.5 |  |  | 
B2 | 12.3 | 2750 | 0.693 | 138 | 0.139 | 76.7 |  |  | 
B3 | 3.12 |  | 0.318 |  | 0.0154 |  | 443 | 29.5 | 3.21
B4 | 5.78 |  | 0.273 |  | 0.0206 |  | 532 | 43.4 | 15.3
B5 | 1.19 |  | 0.178 |  | 0.0142 |  | 138 | 12.1 | 1.89
B6 | 2.49 |  | 0.205 |  | 0.0131 |  | 433 | 31.3 | 2.61
B7 | 3.62 |  | 0.815 |  | 0.225 |  | 431 | 41.1 | 53.8
B8 | 1.76 |  | 0.421 |  | 0.0872 |  | 188 | 26.9 | 16.9
B9 | 4.38 |  | 0.293 |  | 0.0634 |  | 165 | 15.1 | 14.6
B10 | 2.27 |  | 0.173 |  | 0.0294 |  | 182 | 11.7 | 1.18
B11 | 3.32 |  | 0.392 |  | 0.0157 |  | 352 | 35.2 | 3.73
B12 | 3.01 |  | 0.311 |  | 0.0239 |  | 334 | 33.6 | 10.3
B13 | 2.84 |  | 0.236 |  | 0.0226 |  | 525 | 35 | 10.6
B14 | 8.52 |  | 0.615 |  | 0.0235 |  | 1650 | 65.5 | 9.47
B15 | 4.33 |  | 0.139 |  | 0.079 |  | 740 | 16.6 | 29.8
B16 | 2.35 |  | 0.207 |  | 0.01 |  | 536 | 38.2 | 4.55
B17 | 8 |  | 0.365 |  | 0.0239 |  | 855 | 24.7 | 1.96
B18 | 3.81 |  | 0.282 |  | 0.0121 |  | 1440 | 42.9 | 4.25
B19 | 3.25 |  | 0.21 |  | 0.0132 |  | 468 | 31.9 | 2.98
B20 | 2.11 |  | 0.438 |  | 0.0144 |  | 559 | 78.9 | 4.65
B21 | 1.92 |  | 0.194 |  | 0.0114 |  | 319 | 28.7 | 3.07
B22 | 5.49 |  | 0.15 |  | 0.0997 |  | 1150 | 20.3 | 46.9
